Data on 84 variants can be found in the RNAGym collection of RNA variant scans (doi:10.1073/pnas.2313332121).

The labels stand for the following.
B1: TPR t1 (parent)
chain: GACCAAUCUGCCCUCAGAGCUCGAGAACAUCUUCGGAUGCAGAGGAGGCAGGCUUCGGUGGCGCGAUAGCGCCAACGUCCUCAACCUCCAAUGCAUCCCACCACAUGAUGAUGCCUGAAGAGCCUUGGUUUUUUG

The data set covers variants of B1. Description: polymerase ribozyme fitness, log enrichment relative to wild type (log ratio); higher = more active; in vitro selection for triplet polymerase activity. The method, boiled down: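 Mutant libraries of both subunits of a heterodimeric triplet polymerase ribozyme were PCR-built, transcribed, and selected once in triplicate, with frozen incubation at −7 °C and capture of gel-excised extended constructs on streptavidin beads before RT-PCR. Illumina sequencing of input and output libraries was filtered to genotypes with ≥10 input reads and ≥1 read per output. Fitness is the logarithm of genotype enrichment over wild-type enrichment, using inverse-variance-weighted replicate averages. The logarithm is base 2.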
For the variant G77U U125A, the “polymerase ribozyme fitness (log ratio)” value is -1.21.

Take C34U G63C A100U A111C: the “polymerase ribozyme fitness (log ratio)” value was -5.4.

Regarding G60A C99U G110U U130A, the “polymerase ribozyme fitness (log ratio)” value is -5.82.

As to A6U G61C, the “polymerase ribozyme fitness (log ratio)” value was -1.18.

G44U C70U A111C C124U: the “polymerase ribozyme fitness (log ratio)” value was -2.44.

Turning to C12U C89U, the “polymerase ribozyme fitness (log ratio)” value was found to be 0.399.

Regarding C13U G51U G52U U78C C82A, the “polymerase ribozyme fitness (log ratio)” value is -2.57.

U7G A41U: the “polymerase ribozyme fitness (log ratio)” value is -0.368.

Take C49U C94A: the “polymerase ribozyme fitness (log ratio)” value is -2.8.

G36C U112A: the “polymerase ribozyme fitness (log ratio)” value is -1.13.

For the variant G65C C123G U133A, the “polymerase ribozyme fitness (log ratio)” value is -4.9.

Turning to A5U A6U A46C C104U C123A, the “polymerase ribozyme fitness (log ratio)” value is 0.565.

In the case of C40U C64U, the “polymerase ribozyme fitness (log ratio)” value is -0.45.

Turning to C34A G65U C82G A111G U116G, the “polymerase ribozyme fitness (log ratio)” value is -6.99.

Turning to G61U U92A, the “polymerase ribozyme fitness (log ratio)” value is -2.49.

A29U G48U C73G U112A: the “polymerase ribozyme fitness (log ratio)” value was -0.987.

G60A G135C: the “polymerase ribozyme fitness (log ratio)” value was found to be 0.136.

For C4G G69A, the “polymerase ribozyme fitness (log ratio)” value was -2.97.

For the variant G35C A50G C53G U67G C124A G135U, the “polymerase ribozyme fitness (log ratio)” value is -6.69.

C20G C53A: the “polymerase ribozyme fitness (log ratio)” value was -4.27.

As to C70U C72A A103U A108G G110A, the “polymerase ribozyme fitness (log ratio)” value was -6.1.

In the case of C8A G61U G117U A119U C123U, the “polymerase ribozyme fitness (log ratio)” value was -0.671.

Consider C56U G113U C123G U130G, for which the “polymerase ribozyme fitness (log ratio)” value is -2.36.

Regarding C20G A91G C101A G117C, the “polymerase ribozyme fitness (log ratio)” value was -4.92.

Regarding G63U C85A C88U C101G C115A C124A U129C, the “polymerase ribozyme fitness (log ratio)” value is -2.52.

Take U9G U21A: the “polymerase ribozyme fitness (log ratio)” value was -0.191.

Regarding G39A G58A, the “polymerase ribozyme fitness (log ratio)” value is -1.7.

As for A5U A18G, the “polymerase ribozyme fitness (log ratio)” value is -2.05.

Regarding G47C C62U C88U, the “polymerase ribozyme fitness (log ratio)” value is -1.75.

With C28G U32C C56G G117A, the “polymerase ribozyme fitness (log ratio)” value is -5.54.

Turning to C56G G77C, the “polymerase ribozyme fitness (log ratio)” value is -0.126.

For A46C C62U U106G, the “polymerase ribozyme fitness (log ratio)” value is -2.88.

For C115U U129A, the “polymerase ribozyme fitness (log ratio)” value is -3.34.

In the case of G63C G127U, the “polymerase ribozyme fitness (log ratio)” value is -1.97.

For U130G U132A, the “polymerase ribozyme fitness (log ratio)” value was -1.3.

On to U9C C79U, for which the “polymerase ribozyme fitness (log ratio)” value was determined as 0.385.

As to C53A G60A U133A, the “polymerase ribozyme fitness (log ratio)” value is -1.16.

In the case of G36U U55G A83U G110A U130G, the “polymerase ribozyme fitness (log ratio)” value was -5.37.

As for C88A C124A, the “polymerase ribozyme fitness (log ratio)” value was determined as 0.767.

For C56U U59G C114G, the “polymerase ribozyme fitness (log ratio)” value is -1.96.

C28A C56U A121G: the “polymerase ribozyme fitness (log ratio)” value was -2.77.

In the case of A46U C73A C123G G127A, the “polymerase ribozyme fitness (log ratio)” value is -0.933.

As for C12U G47U C86G G122A, the “polymerase ribozyme fitness (log ratio)” value worked out at 0.433.

As to G71U U131A, the “polymerase ribozyme fitness (log ratio)” value worked out at 0.00469.

A41C G45U C124A U126G: the “polymerase ribozyme fitness (log ratio)” value was -1.66.

As for U9C U32C U59G A121C G122U, the “polymerase ribozyme fitness (log ratio)” value was determined as 0.733.

C20A A46C U78C A111C C114A: the “polymerase ribozyme fitness (log ratio)” value was -3.99.

A6U A16C: the “polymerase ribozyme fitness (log ratio)” value is -2.44.

For C11G A41U G47C U59A, the “polymerase ribozyme fitness (log ratio)” value was -3.12.

With C8U C76G A90C C101U, the “polymerase ribozyme fitness (log ratio)” value is -1.52.

Take C8U C88A A90U: the “polymerase ribozyme fitness (log ratio)” value was -0.855.

For the variant C11A C13U A41U, the “polymerase ribozyme fitness (log ratio)” value was -2.84.

As for C12A C53U, the “polymerase ribozyme fitness (log ratio)” value was -0.724.

Take U38G C73G A95C A100C U106A G127A: the “polymerase ribozyme fitness (log ratio)” value is -2.6.

As to U14G C53U U87A, the “polymerase ribozyme fitness (log ratio)” value was -2.67.

In the case of C56G U92G U96A G122A, the “polymerase ribozyme fitness (log ratio)” value was -4.6.

Regarding G71A U81G G113A C123U, the “polymerase ribozyme fitness (log ratio)” value was -6.93.

Turning to C4G G44A G60C A111G, the “polymerase ribozyme fitness (log ratio)” value is -3.78.

Regarding A18C U55C C62U, the “polymerase ribozyme fitness (log ratio)” value is -3.73.

With G48C C104A C124A, the “polymerase ribozyme fitness (log ratio)” value was -0.812.

Turning to U9G G10U C104A, the “polymerase ribozyme fitness (log ratio)” value is -1.09.

On to U7A C64U C89G A91U C97U C115U, for which the “polymerase ribozyme fitness (log ratio)” value was -2.72.

Turning to C8A G63A A83C C86U, the “polymerase ribozyme fitness (log ratio)” value was -0.491.

Turning to A68U C124U, the “polymerase ribozyme fitness (log ratio)” value is -5.86.

In the case of U96A C123U, the “polymerase ribozyme fitness (log ratio)” value was -0.01.

Turning to U33G C72A C85G A90G G120C U129G, the “polymerase ribozyme fitness (log ratio)” value was -7.02.

C8U G61U C70G: the “polymerase ribozyme fitness (log ratio)” value is -4.76.

For G61A U106A G113C, the “polymerase ribozyme fitness (log ratio)” value is -1.85.

In the case of G23A G120C, the “polymerase ribozyme fitness (log ratio)” value is -2.89.

Turning to A37G G60A, the “polymerase ribozyme fitness (log ratio)” value is -1.03.

C12U A84U U131G: the “polymerase ribozyme fitness (log ratio)” value is -0.996.

In the case of C53U C99U, the “polymerase ribozyme fitness (log ratio)” value was -2.93.

C8U C49G C123U: the “polymerase ribozyme fitness (log ratio)” value stood at 1.73.

On to C8U C56U, for which the “polymerase ribozyme fitness (log ratio)” value turned out to be 0.434.

As to C13U A24G A50U, the “polymerase ribozyme fitness (log ratio)” value is -1.91.

For the variant U59G C102A, the “polymerase ribozyme fitness (log ratio)” value was -1.41.

Take C12U A29G U92C C94A: the “polymerase ribozyme fitness (log ratio)” value is -3.95.

With C49G C98G, the “polymerase ribozyme fitness (log ratio)” value was -4.99.

For the variant A6U G45U G52C C72U G122A, the “polymerase ribozyme fitness (log ratio)” value is -2.56.

Turning to C62A U125G, the “polymerase ribozyme fitness (log ratio)” value is -1.43.

Regarding A16G C70U C76A, the “polymerase ribozyme fitness (log ratio)” value was -2.84.

Turning to G17C G36A C114G G127A, the “polymerase ribozyme fitness (log ratio)” value is -5.69.

For the variant U78C A111C, the “polymerase ribozyme fitness (log ratio)” value was found to be 0.402.

With C13U C123A, the “polymerase ribozyme fitness (log ratio)” value was 1.1.
